Results as given in US20220047712A1 (FORTIS THERAPEUTICS, published 2022).

Molecular target: T1, CD46 (human, UniProt P15529 35-392)
T1 construct: whole, on cells; also called CD46 complement regulatory protein; cluster of differentiation 46
T1 sequence (looked up): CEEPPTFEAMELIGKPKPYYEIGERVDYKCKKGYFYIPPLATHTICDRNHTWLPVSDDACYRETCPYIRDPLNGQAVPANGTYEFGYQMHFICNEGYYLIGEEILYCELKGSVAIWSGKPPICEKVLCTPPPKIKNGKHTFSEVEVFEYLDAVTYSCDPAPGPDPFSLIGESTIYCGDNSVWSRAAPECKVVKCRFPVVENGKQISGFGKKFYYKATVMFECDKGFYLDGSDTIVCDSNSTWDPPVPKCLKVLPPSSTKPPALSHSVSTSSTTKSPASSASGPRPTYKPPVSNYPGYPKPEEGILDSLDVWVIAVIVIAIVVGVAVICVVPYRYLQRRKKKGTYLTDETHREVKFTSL
Assay: flow cytometry on cells, YS5FL at 10 µg/mL, AlexaFluor-488 anti-human IgG1 Fc secondary
Experimental: Cell surface CD46 was detected by flow cytometry. Cells were harvested, centrifuged and resuspended in FACS buffer (PBS+2% FBS) at a concentration of 1×10⁶ cells/mL. 100 μL of cell suspension was dispensed into each well of a 96-well plate, 100 μL of YS5FL at 10 μg/mL was added to the wells and incubated for 1 hour at 4° C. The cells were washed three times with FACS buffer. After the third wash, the cells were resuspended in 100 μL 1:500 diluted AlexaFluor-488 mouse anti-Human IgG1 Fc secondary antibody and incubated for 1 hour at 4° C. in the dark. The cells were washed three times with 200 μL PBS by centrifuging at 2000 RPM for 5 minutes. After the last wash, the cells were resuspended in 300 μL cold PBS and analyzed on a FACSVerse™ (BD Biosciences) flow cytometer. YS5FL bound specifically to the surface of LnCap-C4-2B, LnCap-C4, DU145, PC3-luc, and Hs27 prostate cancer cells, but not to non-tumor BPH1 cells. FIG. 1. Likewise, YS5FL bound specifically to the surface of RPMI8226, MM.1S, MM.1R, and INA6 multiple myeloma cells. FIG. 2.

B1: YS5FL (antibody, human IgG1, lambda, V domains shown)
VH: QVQLVQSGGGVVQPGRSLRLACAASGLTVNNYAMHWVRQAPGKGLEWVAVISYDGNNKYYADSVKGRFTISRDNSKNTLYLQMNSLRAEDTAVYYCAKGGGYFDLWGRGTLVTVSS
VL: QSVLTQPPSVSGAPGQRVTISCTGSSSNIGAGYDVHWYQQLPGTAPKLLIYGNNNRPSGVPDRFSGSKSGTSASLAITGLQAEDEADYYCSSYTSGTWLFGGGTKLTVLG
notes: FOR46 is this antibody conjugated to MMAE via mc-vc-PAB; also called anti-CD46 YS5FL antibody; YS5FL mAb
binding result: binds
